Measurements published in article PMC9596381 (2022).
Where two headings read alike, the source gives them in different places.

Key:
[1] = molecular target: T1, human glypican-3 core domain, residues 32-483 (hGPC3^core) (human, UniProt P51654 32-483, N-linked glycans at N124 and N241); assay: SPR
[2] = molecular target: T1, human glypican-3 core domain, residues …; assay: SPR; remark: listed apart in the source

T1 sequence (P51654 32-483): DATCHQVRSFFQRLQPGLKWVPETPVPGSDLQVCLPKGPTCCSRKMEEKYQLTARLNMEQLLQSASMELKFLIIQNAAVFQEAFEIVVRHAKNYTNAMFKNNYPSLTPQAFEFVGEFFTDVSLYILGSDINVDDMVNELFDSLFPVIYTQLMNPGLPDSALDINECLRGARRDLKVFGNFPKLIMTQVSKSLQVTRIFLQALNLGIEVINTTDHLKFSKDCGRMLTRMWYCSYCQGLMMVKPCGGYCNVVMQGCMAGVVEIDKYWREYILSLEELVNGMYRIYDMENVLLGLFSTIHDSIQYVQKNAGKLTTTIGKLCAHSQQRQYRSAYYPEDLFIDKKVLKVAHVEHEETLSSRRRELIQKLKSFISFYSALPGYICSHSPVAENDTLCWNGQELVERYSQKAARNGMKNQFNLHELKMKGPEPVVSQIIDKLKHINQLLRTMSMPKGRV

B1: Rattus norvegicus Unc5D residues 32-307 (rUnc5D^IgIgTSP) (domain or fragment)
chain: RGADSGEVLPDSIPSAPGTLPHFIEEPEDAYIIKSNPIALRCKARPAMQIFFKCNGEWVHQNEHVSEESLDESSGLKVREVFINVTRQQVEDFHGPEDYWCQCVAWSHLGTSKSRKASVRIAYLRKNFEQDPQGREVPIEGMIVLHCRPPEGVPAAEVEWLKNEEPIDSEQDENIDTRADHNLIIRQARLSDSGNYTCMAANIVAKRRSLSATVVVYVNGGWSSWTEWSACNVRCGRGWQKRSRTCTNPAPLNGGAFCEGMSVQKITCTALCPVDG
modifications: C-mannosylated tryptophans W253 and W256 (TSP1)
Kd [1]: 265 nM

B2: mouse Unc5C ectodomain (domain or fragment)
chain: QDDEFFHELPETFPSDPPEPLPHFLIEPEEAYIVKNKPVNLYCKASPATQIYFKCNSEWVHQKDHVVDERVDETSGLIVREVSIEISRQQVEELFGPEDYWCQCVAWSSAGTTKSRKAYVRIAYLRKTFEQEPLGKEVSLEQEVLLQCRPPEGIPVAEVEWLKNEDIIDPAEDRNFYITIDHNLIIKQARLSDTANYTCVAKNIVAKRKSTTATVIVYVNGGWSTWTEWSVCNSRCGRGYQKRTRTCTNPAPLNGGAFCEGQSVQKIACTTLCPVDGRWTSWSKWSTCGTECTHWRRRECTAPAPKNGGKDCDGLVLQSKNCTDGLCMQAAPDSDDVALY
modifications: biotin on the Avi-tag
Kd [2]: 3300 nM
